Results taken from the supplement of paper PMC10567573.
± gives the standard deviation.

Test: protein stability index of a GFP-peptide fusion (GPS, HEK-293T) (PSI 1-6); higher = more stable
[1] = treatment: DMSO, c terminus: a fixed tail appended
[2] = treatment: MLN4924 1 uM, 8 h, c terminus: a fixed tail appended
[3] = treatment: DMSO, c terminus: native
[4] = treatment: MLN4924 1 uM, 8 h, c terminus: native
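Further: 24-mer peptide tiles fused after GFP, lentivirally expressed, FACS-sorted into six equal bins by GFP/DsRed ratio, decoded by Illumina sequencing, PSI is the read-weighted mean bin number.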

| Sequence | protein stability index [1] | protein stability index [2] | protein stability index [3] | protein stability index [4] |
| --- | --- | --- | --- | --- |
| RKLSLKGHNDWVMDVAISNNKKWI [WDR88] | 2.69 ± 0.42 | 2.39 ± 0.29 | – | – |
| RKPKVIECSYTSADGQRHHSKLLV [DHCR7] | 2.72 ± 0.13 | 2.93 ± 0.28 | – | – |
| RKVAGMAKPNMIISVNGDVITIKS [FABP4] | 2.37 ± 0.66 | 2.43 ± 0.26 | – | – |
| RLCFFPFVENGHSESSGQTHLEGD [CFHR2] | 4.01 ± 0.099 | 4.37 ± 0.15 | – | – |
| RLEQEIATYRSLLEGQDAKMIGFP [KRT13] | 3.06 ± 0.1 | 3.36 ± 0.34 | – | – |
| RLFQVVGKTDDTLALLNLACMMTI [TMEM175] | 2.92 ± 0.53 | 2.65 ± 0.56 | – | – |
| RLIATKNPEEIRGGGLLKYSNLLV [TENT5C] | 2.44 ± 0.35 | 2.26 ± 0.26 | – | – |
| RLRPLTLSTPKPLVDFCNKPILLH [GMPPB] | 2.31 ± 0.14 | 2.46 ± 0.51 | – | – |
| RMQVLKRQVQSLMVHQRKLEAELL [SMARCE1] | 2.17 ± 0.27 | 2.6 ± 0.45 | – | – |
| RQEAIYEMSRGEQDLIEDLKLARK [NET1] | 4.69 ± 0.18 | 4.79 ± 0.099 | – | – |
| RQTTGLMEYCLEVIKENDPSGFLQ [TRIM9] | 3.11 ± 0.24 | 3.05 ± 0.34 | – | – |
| RQWPTKSQTDRGASAGKRRCFWLG [SDE2] | 2.9 ± 0.24 | 3.19 ± 0.58 | – | – |
| RRDPSIPIYGLRQSILLNTRLQDC [C22orf31] | 2.74 ± 0.55 | 2.37 ± 0.31 | – | – |
| RRIHSLPQKLLGCSPALKRSHSDS [CDC25A] | 4.89 ± 0.29 | 5.21 ± 0.078 | – | – |
| RSEQSVKLRRQVIQVVLNGMESYQ [ZER1] | 2.41 ± 0.13 | 2.32 ± 0.18 | – | – |
| RSQSSIVPEEEQAANKGEEKKDDE [SMARCE1] | 5.63 ± 0.25 | 5.68 ± 0.14 | – | – |
| RSRDSNSGPEEPLLEEEEKQWGPL [RTN2] | 5.05 ± 0.53 | 5.45 ± 0.53 | – | – |
| RTLPNASTVDNIRSIFGNAVSREL [MLH1] | 3.55 ± 0.12 | 3.54 ± 0.17 | – | – |
| RVAIAHYQDDPDLRFLLDQVQLGL [TSPAN10] | 2.28 ± 0.25 | 2.36 ± 0.25 | – | – |
| RVEESGSKKEGKRQGPKEPPRKSG [PBXIP1] | 5.33 ± 0.17 | 5.33 ± 0.48 | – | – |
| RVKLTKRSGHTQTDYINASFMDGY [PTPN9] | 2.75 ± 0.14 | 2.87 ± 0.27 | – | – |
| RVTTEQYQKAAEEVEAKFKRYESH [CHCHD3] | 4.66 ± 0.14 | 4.7 ± 0.12 | – | – |
| RYCDSILREMLSKKHAAYAWPFYK [BRD3] | 2.07 ± 0.48 | 2.02 ± 0.26 | – | – |

| Sequence | protein stability index [1] | protein stability index [2] | protein stability index [3] | protein stability index [4] |
| --- | --- | --- | --- | --- |
| RYVLKAGQTVTIWAANAGVTASPP [LMNB1] | 3.62 ± 0.27 | 3.49 ± 0.24 | – | – |
| SAIYKWITDNFCYFRHADPTWQNS [FOXJ1] | – | 2.57 ± 0.4 | – | – |
| SAPLQGAVPPTSSVPPVAGAPSVG [SNAP91] | 4.91 ± 0.19 | 4.99 ± 0.081 | – | – |
| SARYLEAALRLHRLLRDSEAFCHA [P3H4] | 2.51 ± 0.23 | 2.07 ± 0.2 | – | – |
| SATLVGFTVGSVLGQILVSVAGWS [SLC19A2] | 3.13 ± 0.21 | 3.23 ± 0.89 | – | – |
| SAVVGDVLVLTKPLGTQVAVNAHQ [SEPHS2] | 2.95 ± 0.3 | 3.1 ± 0.31 | – | – |
| SAWKTVACGGTRDQLFMQEKARQL [MYBL2] | 3.21 ± 0.33 | 3.33 ± 0.28 | – | – |
| SDGTDEPESKEPVEKEEEPDPEPP [SMG5] | 5.67 ± 0.23 | 5.62 ± 0.18 | – | – |
| SDPQTVAGAFGYFQQDTKGLVDFR [LPCAT4] | 3.68 ± 0.41 | 3.71 ± 0.29 | – | – |
| SDSGDGVYAGRPLSVIQMVAFLEQ [FBXO34] | 2.92 ± 0.15 | 3.02 ± 0.34 | – | – |
| SDVVPEKERPLVIGHFNTASGVGF [MFSD9] | 3.49 ± 0.26 | 3.52 ± 0.25 | – | – |
| SEDNTSFDRKKKSISLMYGGSKRK [SLA] | 4.66 ± 0.26 | 4.91 ± 0.27 | – | – |
| SEDTLTIHGLPTEGYQALYHAVVE [C22orf31] | 3.19 ± 0.27 | 3.24 ± 0.36 | – | – |
| SETGSTGALETRSLKDHKVSFLRS [C2CD2L] | 4.48 ± 0.29 | 4.46 ± 0.19 | – | – |
| SFMLQDRAKGLLGTTVTFDDLMGI [FEM1C] | 2.49 ± 0.24 | 2.66 ± 0.14 | – | – |
| SFNHNAHLTVHKRIHTGERPYMCK [ZNF8] | 2.76 ± 0.2 | 2.9 ± 0.22 | – | – |
| SFPEPEAAQPMTKKRKVDGLSTEA [PRAME] | 5.19 ± 0.3 | 5.16 ± 0.14 | – | – |
| SFPLEWAPQNLTRWTFEKACHPFL [TOR1AIP2] | 2.12 ± 0.093 | 2.31 ± 0.12 | – | – |
| SFTLADVSLAVTLHRLKFLGFARR [GDAP1] | 2.5 ± 0.64 | 2.33 ± 0.33 | – | – |
| SFVESANSEVYLPNINKISMQAVL [RHOBTB1] | 2.43 ± 0.21 | 2.2 ± 0.34 | – | – |
| SGDRDENSFSLNSSISSSARRTTR [MAP2] | 5.05 ± 0.28 | 4.97 ± 0.32 | – | – |
| SGHKLYIFLFQDILVLTRPVTRNE [NET1] | 2.6 ± 0.56 | 2.41 ± 0.48 | – | – |
| SGLVRRLWRSRVVPDREEGGSGGG [SMAD6] | 3.91 ± 0.6 | 4.33 ± 0.36 | – | – |

| Sequence | protein stability index [1] | protein stability index [2] | protein stability index [3] | protein stability index [4] |
| --- | --- | --- | --- | --- |
| SGMGGRAPVSRGRDSYGGPPRREP [RBMX] | 4.45 ± 0.28 | 4.61 ± 0.29 | – | – |
| SGRLMGSPPVPGPSAALTTMQLFS [FBXO28] | 2.71 ± 0.25 | 2.63 ± 0.21 | – | – |
| SGSSYRDALQRYGTSHGAPPARGP [RBMY1A1] | 4.1 ± 0.22 | 4.14 ± 0.25 | – | – |
| SIKKKFLKRKGKTDSPWIKPARKR [EHMT1] | 3.66 ± 0.082 | 3.71 ± 0.17 | – | – |
| SIKPEASQMPPPAGGTSDDPEPSG [SCNN1D] | 5.43 ± 0.15 | 5.57 ± 0.28 | – | – |
| SIPKLKLTRPVPAGADLPPPKIRL [PWWP2B] | 3.45 ± 0.23 | 3.63 ± 0.35 | – | – |
| SIVSGGYGGSGDGLIPTGSGRHPS [ARFIP2] | 3.96 ± 0.19 | 4.34 ± 0.42 | – | – |
| SIYPMEVLKTRMALRKTGQYSGML [SLC25A25] | 2.48 ± 0.36 | 2.6 ± 0.52 | – | – |
| SKAHLEKVRSYVKRALAEGAQIWC [ALDH8A1] | 3.23 ± 0.73 | 3.19 ± 0.56 | – | – |
| SKSKQPAGHRRPAGGIRESKESSK [C22orf31] | 5.35 ± 0.055 | 4.91 ± 0.53 | – | – |
| SKTFLCIGSSVMAASLVTMGIVNL [SLC2A12] | 3.19 ± 0.72 | 3.3 ± 0.54 | – | – |
| SKTNLIVNYLPQNMTQDEFKSLFG [ELAVL3] | 2.63 ± 0.28 | 2.79 ± 0.22 | – | – |
| SLAQGPDAATTDELSSLGSDSEAN [TBC1D10A] | 5.56 ± 0.19 | 5.5 ± 0.18 | – | – |
| SLGYVRSQFLKLKTSVEKANAQIQ [CD207] | 2.63 ± 0.53 | 2.81 ± 0.27 | – | – |
| SLKDGLSDSDSELSSSEGLEPGSA [PSD2] | 5.47 ± 0.28 | 5.6 ± 0.13 | – | – |
| SLLNFLPEGVNKLKISPVTLKEAY [TENT5C] | 2.27 ± 0.23 | 2.41 ± 0.12 | – | – |
| SLLPAQVAACAQTVVSLAAAGQPT [CEBPD] | 3.24 ± 0.9 | 2.9 ± 0.37 | – | – |
| SLLQSAWMEILILGVVYRSLSFED [ESRRG] | 3.09 ± 0.26 | 3.07 ± 0.22 | – | – |
| SLRLCDMRAAALCDKHSKLFEEPE [PPP2R2C] | 4.19 ± 0.26 | 4.08 ± 0.26 | – | – |
| SLSAGEKPGFLAPRDLPKHTPLIS [RASAL3] | 3.56 ± 0.23 | 3.65 ± 0.32 | – | – |
| SLSHTELEAAEVILEHAHRGEQTT [FCHSD1] | 5.22 ± 0.26 | 5.28 ± 0.11 | – | – |
| SLTSGACRLDYRRPENRSFYLALY [TCF25] | 2.41 ± 0.66 | 2.57 ± 0.88 | – | – |
| SMLLQRFSVAPHETQTQRGGEFQC [RNF180] | 3.05 ± 0.097 | 3.31 ± 0.26 | – | – |

| Sequence | protein stability index [1] | protein stability index [2] | protein stability index [3] | protein stability index [4] |
| --- | --- | --- | --- | --- |
| SNFHINVEESVDGQVVSSHKREI [KRT15] | – | – | 2.91 ± 1 | 3.83 ± 1 |
| SNIDKKFSAHYDAVEAELKSSTVG [FAM50A] | 4.64 ± 0.18 | 4.83 ± 0.28 | – | – |
| SNPLAREIFRRHFRQLCYQETPGP [ZSCAN9] | 2.28 ± 0.039 | 2.52 ± 0.097 | – | – |
| SNQIPTEVRSKAEEVVSFVKKNVL [FUNDC2] | 3.59 ± 0.32 | 3.73 ± 0.18 | – | – |
| SNTRDRYGRSWESYSSCGDFHYCD [RBMY1A1] | 2.73 ± 0.27 | 2.91 ± 0.54 | – | – |
| SNWYITFQSDTDAQQAFILKRRS [LARP4] | – | – | 2.93 ± 0.3 | 2.21 ± 0.41 |
| SPDVLQMLKIHRSDPQLIVQLRFC [TRADD] | 2.73 ± 0.58 | 2.56 ± 0.6 | – | – |
| SPQPLASSPGPWGLEALAGGDLMP [FCHO1] | 4.05 ± 0.093 | 4 ± 0.27 | – | – |
| SRLMVVVKMDSSIQPGPFRAVLKY [RHOBTB2] | 2.9 ± 0.56 | 2.79 ± 0.53 | – | – |
| SRLQEDPEGTENPLGVDESLFSYG [SLA] | 4.91 ± 0.058 | 4.66 ± 0.69 | – | – |
| SRPELLQPLNFVRFYLPLLIHQHE [GLT8D2] | 3.09 ± 0.33 | 3.14 ± 0.59 | – | – |
| SRRPLDEAVAGAEGREAPALVAAG [DENND6A] | 4.86 ± 0.35 | 5.19 ± 0.25 | – | – |
| SRRYNRKEPAEFNGDGAFLHDNHE [ZNF649] | 4.73 ± 0.43 | 4.45 ± 0.13 | – | – |
| SRVMFLLVDKETDKRHVEQKIQFK [PDZK1] | 2.62 ± 0.32 | 2.88 ± 0.26 | – | – |
| SSASSEQGLLGRSPPTRPVPGHRS [SPRY1] | 4.82 ± 0.27 | 4.8 ± 0.12 | – | – |
| SSDPFYTPEPDTCHELLGHVPLLA [TPH1] | 3.17 ± 0.35 | 3.31 ± 0.15 | – | – |
| SSECHTSGFVGSGGWFCEGSFNGS [KRT36] | 3.23 ± 0.17 | 3.06 ± 0.37 | – | – |
| SSNLLDLKNPFFRYTGTTPSPPPG [CARM1] | 3.29 ± 0.29 | 3.42 ± 0.15 | – | – |
| SSREDSLEAGLPLQVRGYPEEKKE [CHGA] | 5.49 ± 0.21 | 5.5 ± 0.3 | – | – |
| SSRFSSSRLLGSASPSSSVRLGSF [PRPH] | 2.82 ± 0.24 | 2.83 ± 0.18 | – | – |
